Reference: patent US20210230266A1 (SINGAPORE HEALTH SERVICES PTE, published 2021)

T1: Human IL-11 (human, UniProt P20809 22-199)
T1 construct: Recombinant human IL-11 (GenScript Cat. No. Z03108-1) or IL-11 secreted by human cells; the mature form is said to have 178 residues; also called recombinant human IL-11; endogenously produced IL-11
T1 sequence: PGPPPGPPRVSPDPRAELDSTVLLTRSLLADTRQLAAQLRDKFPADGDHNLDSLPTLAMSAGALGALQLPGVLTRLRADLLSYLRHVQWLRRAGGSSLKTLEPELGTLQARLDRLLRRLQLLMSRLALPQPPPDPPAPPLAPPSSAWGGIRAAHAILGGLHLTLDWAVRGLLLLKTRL

T2: Mouse IL-11 (mouse, UniProt P47873 22-199, limits assumed)
T2 construct: also called murine IL-11; recombinant murine IL-11
T2 sequence (looked up): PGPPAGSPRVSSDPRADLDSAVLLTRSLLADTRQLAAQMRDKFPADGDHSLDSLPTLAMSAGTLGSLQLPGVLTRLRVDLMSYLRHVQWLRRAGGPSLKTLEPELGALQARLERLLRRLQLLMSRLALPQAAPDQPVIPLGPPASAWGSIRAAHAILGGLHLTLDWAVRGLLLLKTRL


Experiments:
Human IL-11 [1] = biological target: T1, Human IL-11; experiment: ELISA
Protocol: (§1) The soluble scFv were produced by recombinant expression in E. coli, and analysed for their ability to bind to human IL-11 and murine IL-11 by ELISA. Briefly, the respective antigen was coated to wells of an ELISA plate, the cell culture supernatant containing the respective scFv was added at a 1:2 dilution, and binding was detected.

Mouse IL-11 = biological target: T2, Mouse IL-11; experiment: ELISA
Protocol: as §1

Human IL-11 [2] = biological target: T1, Human IL-11; experiment: cell-based or functional assay
For MMP2 production, Experiment 1 (human atrial fibroblasts + TGFB1) in this document: test concentration or dose not given here.
For MMP2 production, Experiment 2 (human atrial fibroblasts + TGFB1) in this document: test concentration or dose not given here.

| Binder | hIL11 - average signal (Human IL-11 [1]) | mIL11 - average signal (Mouse IL-11) | MMP2 production, Experiment 1 (human atrial fibroblasts + TGFB1) (Human IL-11 [2]) | MMP2 production, Experiment 2 (human atrial fibroblasts + TGFB1) (Human IL-11 [2]) |
| --- | --- | --- | --- | --- |
| YU100-F05 (antibody) QVQLQQSGGGVVQPGRSLRLSCAASGFTFSSYGMHWVRQAPGKGLEWVAVISYDGSNKYYADSVKGRFTISRDNSKNTLYLQMNSLRAEDTAVYYCAKIGATDPLDYWGQGTLVTVSSGSASAPKLEEGEFSEARVQAVLTQPASVSGSPGQSITISCTGTSSDIGGYNYVSWYQQHPGTAPKLMIYDVSSRPSGVSNRFSGSKSGNTASLTISGLQAEDEADYYCCSYAGSYTWVFGGGTKMTVL | 0.304 | 0.542 |  |  |
| YU100-F06 (antibody) QVQLVESGGGVVQPGRSLRLSCAASGFTFSSYGMHWVRQAPGKGLEWVAVISYDGSNKYYADSVKGRFTISRDNSKNTLYLQMNSLRAEDTAVYYCARIMGYDYGDYDVVDYWGQGTLVTVSSGSASAPKLEEGEFSEARVQSALTQPRSVSGSPGQSVTISCTGSSSDVGGYNFVSWYRQHPGEAPKLVIFDVNKRPSGVPDRFSGSKSGNTASLTISGLQTEDEADYFCCSYAGGYTWVFGGGTKVTVV | 0.16 | 0.481 |  |  |
| YU112-G01 (antibody) QVQLVESGGGVVQPGRSLRLSCAASGFTFSSYGMHWVRQAPGKGLEWVAVISYDGSNKYYADSVKGRFTISRDNSKNTLYLQMNSLRAEDTAVYYCAKLSGPNGVDYWGQGTLVTVSSGSASAPKLEEGEFSEARVQSALTQPRSVSGSPGQSVTISCTGTISDVGGYNYVSWYQQHPGKAPKLMIYDVTKRPSGVPDRFSGSKSGNTASLTISGLQAEDEAGYYCSSYAGSYTWVFGGGTELTVL | 0.528 | 0.794 | 47.6 ng/mL | 43.8 ng/mL |
| YU100-B09 (antibody, V domains shown) VH: QVQLVQSGGGVVQPGRSLRLSCAASGFTFSSYGMHWVRQAPGKGLEWVAVISYDGSNKYYADSVKGRFTISRDNSKNTLYLQMNSLRAEDTAVYYCAKIGATDPLDYWGQGTLVTVSS | 0.21 | 0.293 |  |  |

Other lines, results leading:

| hIL11 - average signal (Human IL-11 [1]) | mIL11 - average signal (Mouse IL-11) | MMP2 production, Experiment 1 (human atrial fibroblasts + TGFB1) (Human IL-11 [2]) | MMP2 production, Experiment 2 (human atrial fibroblasts + TGFB1) (Human IL-11 [2]) | Binder |
| --- | --- | --- | --- | --- |
| 0.498 | 0.507 |  |  | YU100-G11 (antibody) QVQLVESGGGVVQPGRSLRLSCAASGFTFSSYGMHWVRQAPGKGLEWVAVISYDGSNKYYADSVKGRFTISRDNSKNTLYLQMNSLRAEDTAVYYCARIMGYDYGDYDVVDYWGQGTLVTVSSGSASAPKLEEGEFSEARVQSALTQPRSVSGSPGQSVTISCTGTSSDVGGYNYVSWYQQHPGKAPKLTLYDVGKRPSGVPDRFSGSKSGNTASLTISGLQAEDEADYYCCSYAGGYTWVFGGGTKVTVV |
| 0.593 | 0.898 |  |  | YU112-C09 (antibody) QVQLVQSGGGVVQPGRSLRLSCAASGFTFGSYGMHWVRQAPGKGLEWVAVISYDGSNKYYADSVKGRFTISRDNSKNTLYLQMNSLRAEDTAVYYCAKGSYYFDYWGQGTLVTVSSGSASAPKLEEGEFSEARVETTLTQSPATLSVSPGERATLSCRASQSFSSSYLAWYQQKPGQAPRLLIYGASRRAPGIPDRFSGSGSGTDFSLTISRLEPEDFAVYYCQQSSTSPTWAFGRGTKVEVK |
| 0.246 | 0.322 |  |  | YU100-D07 (antibody) QVQLVESGGGVVQPGRSLRLSCAASGFTFSSYAMHWVRQAPGKGLEWVAVISYDGSNKYYADSVKGRLTISRDNSKNTLYLQMNSLRAEDTAVYYCARIMGYDYGDYDVVDYWGQGTLVTVSSGSASAPKLEEGEFSEARVQSALTQPRSVSGSPGQSVTISCTGTSGDVGTYDYVSWYQQHPGKAPKLMIYDVSKRPSGVPDRFSGSKSGNTASLTISGLQAEDEADYYCNSYAGSYTWVFGGGTKLTVLGQPKTAPSVTLFPPSS |
